Key:
[1] = test system: facial skin; test: Expert clinical grader evaluation of facial skin (10 cm VAS; five-point ordinal scale for erythema), clinical study of Example 3; assay type: in vivo, human; conditions: 0.1% w/w topical formulation, Week 2
Protocol: (§1) A clinical study using human subjects to determine the effects of a topical skincare product containing truncated human type 21 collagen (SEQ ID NO: 16) is performed. The research is performed according to U.S. and International standards of Good Clinical Practice (FDA and ICH guidelines) and applicable government regulations.
(§2) A base formulation (control formulation) made of water, olive oil glycereth-8 esters, glycerin, coconut alkanes, hydroxyethyl acrylate/sodium acryloyldimethyl taurate copolymer, pentylene glycol, disodium EDTA, caprylyl glycol, chlorphenesin, phenoxyethanol is prepared. A formulation containing the truncated human type 21 collagen is prepared by adding sufficient collagen to prepare a topical formulation containing 0.1% w/w collagen.
Visual Analog Scales (VAS) are commonly used in clinical research to measure intensity or frequency of various symptoms, subjective characteristics or attitudes that cannot be directly measured. VAS are a reliable scale and more sensitive to small changes than simple ordinal scales. (A. Paul-Dauphin, F. Guillemin, J. Virion and S. Briancon, “Bias and precision in visual analog scales: A randomized controlled trial,” American Journal of Epidemiology, vol. 150, no. 10, pp. 1117-27, 1999). When responding to a VAS item, the expert grader specifies their level of agreement to a statement by indicating a position along a line (10 cm) between two end-points or anchor responses. Simple VAS is used to evaluate efficacy parameters in which the ends of a 10 cm horizontal line is defined as extreme limits orientated from the left (best) to the right (worst). Signs of photo-aging can be classified as follows: Mild=1-3.9 cm, Moderate=4-6.9 cm, Severe=7-10 cm.
Ordinal scales allow a number to be directly and objectively attached to the quality of a given attribute. When responding to an ordinal scale item, the expert grader specifies their level of agreement to a statement by choosing a set grade, or level.
The appearance of each subject's facial skin redness (erythema) is assessed by an expert grader using the following five-point ordinal scale for qualification at Baseline (Table 6). If qualified, each subject will undergo further erythema assessments at week 2, week 4, week 6 and week 8.
Fourteen female subjects are enrolled. The inclusion criteria are Caucasian female subjects with Fitzpatrick skin type III in good general health, and between ages of 35 and 65 years old, inclusive at enrollment. Inclusion criteria also include signs of aging on face as determined by an expert grader at a baseline of: a) Score of >2 cm<6 on 10 cm scale for lines/wrinkles; and b) Score of >1<3 on 5-point ordinal scale for facial redness (erythema). Table 7 discloses the demographics of the study participants.
The results of the expert clinical grader evaluation on lines/wrinkles, firmness (visual), elasticity (tactile), brightness, texture/softness (tactile), texture/smoothness (visual) and erythema after two weeks treatment are shown in Table 8. All of the tested characteristics were improved. The scores for brightness, texture/softness (tactile), texture/smoothness (visual) and erythema improved with statistical significance.

[2] = test system: facial skin; test: Cutometer skin firmness and elasticity, clinical study of Example 3; assay type: in vivo, human; conditions: 0.1% w/w topical formulation; for Cutometer Elasticity (R5 Ur/Ue) Mean ± SD / Cutometer Firmness (R0 Uf) Mean ± SD / Cutometer Elasticity (R2 Ua/Uf) Mean ± SD: n 14; for Cutometer Elasticity (R5 Ur/Ue) Mean ± SD: baseline 0.28 ± 0.06; for Cutometer Firmness (R0 Uf) Mean ± SD: baseline 0.35 ± 0.06; for Cutometer Elasticity (R2 Ua/Uf) Mean ± SD: baseline 0.64 ± 0.09
Protocol: as §1, §2
The Cutometer MPA 580 (Courage+Khazaka, Germany) measures the viscoelastic properties of the skin by applying suction to the skin surface, drawing the skin into the aperture of the probe and determining the penetration depth using an optical measuring system.
The Cutometer outputs include many parameters of different portions of the measurement curve including of R0 (Uf, firmness), R2 (Ua/Uf, gross elasticity), R5 (Ur/Ue, net elasticity), R7 (Ur/Uf, elastic portion) and R9 (R3 [last max amp]-R0 [Uf], fatigue).
All subjects have Cutometer measurements taken on the left or right cheek (following a prepared randomization code) at baseline, immediately post-initial-application, and at weeks 2, 4, and 8. Skin elasticity is reported using the R5 (Ur/Ue) and R2 (Ua/Uf) parameter. As the skin becomes more elastic, this value will increase. Skin Firmness is reported using the R0 (Uf) parameter. As the skin becomes firmer, this value will decrease. Assessment location is recorded on a face map for each subject for consistency of measurements between visits.
Improvements in skin hydration, firmness, and elasticity were statistically significant.

[3] = test system: fibroblasts; test: RNA sequencing of extracellular matrix gene expression in fibroblasts; assay type: cell-based, human; conditions: 0.03%, 48 hours
Protocol: RNA sequencing was performed to analyze global gene expression. After 48 hours of exposure, fibroblasts were incubated with 0.03% of a polypeptide according to SEQ ID NO: 16. These fibroblasts expressed higher levels of several extracellular matrix genes than cells incubated in media alone. […] This response was similar to fibroblasts treated with Vitamin C (FIG. 2A; “D”).

[4] = test system: facial skin; test: Facial wrinkles, clinical study of Example 5; assay type: in vivo, human; conditions: topical facial serum 0.1%, n=15, FIG. 9
Excerpt: In a clinical study (n=15 subjects), subjects used a topical facial serum containing 0.1% of a polypeptide of SEQ ID NO: 16 for 8 weeks, after using a protein-free base facial serum for a 1-week washout period.

[5] = test system: Human full-thickness skin equivalents (MatTek Epiderm FT co-culture tissue models); test: Fibronectin production in human full-thickness skin equivalents (ELISA); assay type: cell-based; conditions: polypeptide 0.1% w/w, FIG. 19

B1: SEQ ID NO: 16: truncated human collagen type 21 alpha 1 without the DsbA secretion tag, recombinantly expressed in E. coli (protein)
chain: AGFPGLPGPAGEPGRHGKDGLMGSPGFKGEAGSPGAPGQDGTRGEPGIPGFPGNRGLMGQKGEIGPPGQQGKKGAPGMPGLMGSNGSPGQPGTPGSKGSKGEPGIQGMPGASGLKGEPGATGSPGEPGYMGLPGIQGKKGDKGNQGEKGIQGQKGENGRQGIPGQQGIQGHHGAKGERGEKGEPGVR
Brightness Mean Percent Improvement From BL mean [1]: 2.57%
Brightness Percent of Subjects Showing Improvement From BL [1]: 78.6%
Elasticity (Tactile) Mean Percent Improvement From BL mean [1]: 0.25%
Elasticity (Tactile) Percent of Subjects Showing Improvement From BL [1]: 35.7%
Erythema Mean Percent Improvement From BL mean [1]: 23.81%
Erythema Percent of Subjects Showing Improvement From BL [1]: 35.7%
Firmness (Visual) Mean Percent Improvement From BL mean [1]: 1.08%
Firmness (Visual) Percent of Subjects Showing Improvement From BL [1]: 64.3%
Lines/Wrinkles (Global) Mean Percent Improvement From BL mean [1]: 0.92%
Lines/Wrinkles (Global) Percent of Subjects Showing Improvement From BL [1]: 57.1%
Texture/Smoothness (Visual) Mean Percent Improvement From BL mean [1]: 3.63%
Texture/Smoothness (Visual) Percent of Subjects Showing Improvement From BL [1]: 64.3%
Texture/Softness (Tactile) Mean Percent Improvement From BL mean [1]: 6.43%
Texture/Softness (Tactile) Percent of Subjects Showing Improvement From BL [1]: 71.4%
Texture/Softness (Tactile) Mean ± SD ([1]; n 14, baseline 4.82 ± 0.82, P-value 0.008*): 4.51 ± 0.89
Elasticity (Tactile) Mean ± SD ([1]; n 14, baseline 4.91 ± 0.53, P-value 0.547): 4.90 ± 0.52
Firmness (Visual) Mean ± SD ([1]; n 14, baseline 5.07 ± 0.77, P-value 0.120): 5.01 ± 0.75
Lines/Wrinkles (Global) Mean ± SD ([1]; n 14, baseline 5.22 ± 0.75, P-value 0.336): 5.17 ± 0.75
Texture/Smoothness (Visual) Mean ± SD ([1]; n 14, baseline 5.46 ± 0.70, P-value 0.009*): 5.25 ± 0.68
Brightness Mean ± SD ([1]; n 14, baseline 5.51 ± 0.54, P-value 0.010*): 5.37 ± 0.62
Erythema Mean ± SD ([1]; five-point ordinal scale, n 14, baseline 1.60 ± 0.73, P-value 0.021*): 1.21 ± 0.80
Cutometer Elasticity (R2 Ua/Uf) Mean Percent Improvement From BL mean ([2]; Immediate): 45.85%
Cutometer Elasticity (R5 Ur/Ue) Mean Percent Improvement From BL mean ([2]; Immediate): 44.57%
Cutometer Elasticity (R5 Ur/Ue) Percent of Subjects Showing Improvement From BL ([2]; Immediate): 92.9%
Cutometer Firmness (R0 Uf) Mean Percent Improvement From BL mean ([2]; Immediate): 30.38%
Cutometer Firmness (R0 Uf) Percent of Subjects Showing Improvement From BL ([2]; Immediate): 100%
Cutometer Elasticity (R5 Ur/Ue) Mean ± SD ([2]; Immediate, P-value <0.001*): 0.40 ± 0.09
Cutometer Firmness (R0 Uf) Mean ± SD ([2]; Immediate, P-value <0.001*, value decreases as skin becomes firmer): 0.24 ± 0.05
Cutometer Elasticity (R2 Ua/Uf) Mean ± SD ([2]; Immediate, P-value <0.001*): 0.93 ± 0.13
Cutometer Elasticity (R2 Ua/Uf) Mean Percent Improvement From BL mean ([2]; Week 2): 26.93%
Cutometer Elasticity (R5 Ur/Ue) Mean Percent Improvement From BL mean ([2]; Week 2): 33.36%
Cutometer Elasticity (R5 Ur/Ue) Percent of Subjects Showing Improvement From BL ([2]; Week 2): 92.9%
Cutometer Firmness (R0 Uf) Mean Percent Improvement From BL mean ([2]; Week 2): 11.27%
Cutometer Firmness (R0 Uf) Percent of Subjects Showing Improvement From BL ([2]; Week 2): 78.6%
Cutometer Elasticity (R5 Ur/Ue) Mean ± SD ([2]; Week 2, P-value <0.001*): 0.37 ± 0.08
Cutometer Firmness (R0 Uf) Mean ± SD ([2]; Week 2, P-value 0.028*): 0.31 ± 0.07
Cutometer Elasticity (R2 Ua/Uf) Mean ± SD ([2]; Week 2, P-value <0.001*): 0.80 ± 0.09
elastin gene (ELN) expression ([3]; relative to untreated cells and various marine collagens, FIG. 2B): upregulated
collagen type I gene (COL1A) expression ([3]; relative to untreated cells or retinol, similar to Vitamin C, FIG. 2A): upregulated
fibronectin gene (FN1) expression ([3]; relative to untreated cells, retinol and Vitamin C, FIG. 2C): upregulated
facial wrinkles ([4]; 4 weeks vs baseline): reduction
facial wrinkles ([4]; 8 weeks vs baseline): reduction
increase of fibronectin production relative to untreated control ([5]; day 4 supernatant, hyaluronic acid 0.1% w/w (low molecular weight, 15-40 kDa)): 67%
production of fibronectin as compared to untreated cells ([5]; each agent alone, day 4, retinol (10, unit not given), ascorbic acid 2% w/w, hyaluronic acid 0.1% w/w): increased production
